Measurements: PMC8827656
Where “and” joins values, the source holds several entries; their conditions need not be identical. Equal entries are not always repeated. Blank lines part the entries; values can stand above or below the substance they belong to.

Columns and labels:
[1] = target: photosystem I (PSI) complex from white-light-grown Synechococcus sp. PCC 7335 (Synechococcus sp. PCC 7335 (endogenous in the cells)); assay: sucrose gradient sedimentation; thylakoid membranes solubilised with 1% DDM, 5-20% sucrose gradients with 0.05% DDM, 140,000g for 12-16 h at 4°C; bands assigned by position (fig. S3B), no TEM told
[2] = target: photosystem I (PSI) complex from white-light-grown Synechococcus sp. PCC 7335 (Synechococcus sp. PCC 7335 (endogenous in the cells)); assay: atomic force microscopy; thylakoid membrane patches from 20-50% sucrose gradients with 0.1% digitonin, adsorbed on mica; PeakForce mode under liquid; 10 mM Hepes pH 7.5, 100 mM KCl; oligomer assigned from heights, nearest-neighbour angles and lateral distances
[3] = target: photosystem I (PSI) complex from white-light-grown Synechococcus sp. PCC 7335 (Synechococcus sp. PCC 7335 (endogenous in the cells)); assay: as above; remark: listed apart in the source
[4] = target: photosystem I (PSI) complex from FRL-acclimated Chlorogloeopsis fritschii PCC 9212 (C. fritschii PCC 9212 (endogenous in the cells)); assay: sucrose gradient sedimentation + negative-stain TEM; thylakoid membranes solubilised with 1% DDM, 5-20% sucrose gradients with 0.05% DDM, 140,000g for 12-16 h at 4°C; bands negatively stained with uranyl acetate and imaged by TEM
[5] = target: photosystem I (PSI) complex from FRL-acclimated Chlorogloeopsis fritschii PCC 9212 (C. fritschii PCC 9212 (endogenous in the cells)); assay: atomic force microscopy; thylakoid membrane patches from 20-50% sucrose gradients with 0.1% digitonin, adsorbed on mica; PeakForce mode under liquid; 10 mM Hepes pH 7.5, 100 mM KCl; oligomer assigned from heights, nearest-neighbour angles and lateral distances
[6] = target: photosystem II (PSII) complex from FRL-acclimated Chroococcidiopsis thermalis PCC 7203 (C. thermalis PCC 7203 (endogenous in the cells)); assay: sucrose gradient sedimentation + negative-stain TEM; thylakoid membranes solubilised with 1% DDM, 5-20% sucrose gradients with 0.05% DDM, 140,000g for 12-16 h at 4°C; bands negatively stained with uranyl acetate and imaged by TEM
[7] = target: photosystem I (PSI) complex from white-light-grown Chroococcidiopsis thermalis PCC 7203 (C. thermalis PCC 7203 (endogenous in the cells)); assay: atomic force microscopy; thylakoid membrane patches from 20-50% sucrose gradients with 0.1% digitonin, adsorbed on mica; PeakForce mode under liquid; 10 mM Hepes pH 7.5, 100 mM KCl; oligomer assigned from heights, nearest-neighbour angles and lateral distances
[8] = target: photosystem I (PSI) complex from white-light-grown Chroococcidiopsis thermalis PCC 7203 (C. thermalis PCC 7203 (endogenous in the cells)); assay: native gel or EMSA; BN-PAGE; thylakoid membranes solubilised with 0.4 or 2% DDM, 4-16% NativePAGE gels
[9] = target: photosystem I (PSI) complex from FRL-acclimated Chroococcidiopsis thermalis PCC 7203 (C. thermalis PCC 7203 (endogenous in the cells)); assay: sucrose gradient sedimentation + negative-stain TEM; thylakoid membranes solubilised with 1% DDM, 5-20% sucrose gradients with 0.05% DDM, 140,000g for 12-16 h at 4°C; bands negatively stained with uranyl acetate and imaged by TEM
[10] = target: photosystem I (PSI) complex from FRL-acclimated Chroococcidiopsis thermalis PCC 7203 (C. thermalis PCC 7203 (endogenous in the cells)); assay: atomic force microscopy; thylakoid membrane patches from 20-50% sucrose gradients with 0.1% digitonin, adsorbed on mica; PeakForce mode under liquid; 10 mM Hepes pH 7.5, 100 mM KCl; oligomer assigned from heights, nearest-neighbour angles and lateral distances
[11] = target: photosystem I (PSI) complex from FRL-acclimated Chroococcidiopsis thermalis PCC 7203 (C. thermalis PCC 7203 (endogenous in the cells)); assay: native gel or EMSA; BN-PAGE; thylakoid membranes solubilised with 0.4 or 2% DDM, 4-16% NativePAGE gels
[12] = target: photosystem I (PSI) complex from white-light-grown Chlorogloeopsis fritschii PCC 9212 (C. fritschii PCC 9212 (endogenous in the cells)); assay: sucrose gradient sedimentation + negative-stain TEM; thylakoid membranes solubilised with 1% DDM, 5-20% sucrose gradients with 0.05% DDM, 140,000g for 12-16 h at 4°C; bands negatively stained with uranyl acetate and imaged by TEM
[13] = target: photosystem I (PSI) complex from white-light-grown Chlorogloeopsis fritschii PCC 9212 (C. fritschii PCC 9212 (endogenous in the cells)); assay: atomic force microscopy; thylakoid membrane patches from 20-50% sucrose gradients with 0.1% digitonin, adsorbed on mica; PeakForce mode under liquid; 10 mM Hepes pH 7.5, 100 mM KCl; oligomer assigned from heights, nearest-neighbour angles and lateral distances
[14] = target: photosystem I (PSI) complex from FRL-acclimated Synechococcus sp. PCC 7335 (Synechococcus sp. PCC 7335 (endogenous in the cells)); assay: sucrose gradient sedimentation; thylakoid membranes solubilised with 1% DDM, 5-20% sucrose gradients with 0.05% DDM, 140,000g for 12-16 h at 4°C; bands assigned by position (fig. S3B), no TEM told
[15] = target: photosystem I (PSI) complex from FRL-acclimated Synechococcus sp. PCC 7335 (Synechococcus sp. PCC 7335 (endogenous in the cells)); assay: atomic force microscopy; thylakoid membrane patches from 20-50% sucrose gradients with 0.1% digitonin, adsorbed on mica; PeakForce mode under liquid; 10 mM Hepes pH 7.5, 100 mM KCl; oligomer assigned from heights, nearest-neighbour angles and lateral distances

Substance: photosystem I (PSI) complex from white-light-grown Synechococcus sp. PCC 7335
stoichiometry N [1]: 2 and 3 and 4
stoichiometry N [2]: 2
stoichiometry N [3]: 3

Substance: photosystem I (PSI) complex from FRL-acclimated Chlorogloeopsis fritschii PCC 9212
stoichiometry N [4]: 3
stoichiometry N [5]: 3

Substance: photosystem II (PSII) complex from FRL-acclimated Chroococcidiopsis thermalis PCC 7203
stoichiometry N [6]: 2

Substance: photosystem I (PSI) complex from white-light-grown Chroococcidiopsis thermalis PCC 7203
stoichiometry N [7]: 2
stoichiometry N [8]: 2

Substance: photosystem I (PSI) complex from FRL-acclimated Chroococcidiopsis thermalis PCC 7203
stoichiometry N [9]: 3 and 2
stoichiometry N [10]: 3
stoichiometry N [11]: 3

Results, then the substance that gave them:

stoichiometry N [12]: 4 and 2
stoichiometry N [13]: 2
Substance: photosystem I (PSI) complex from white-light-grown Chlorogloeopsis fritschii PCC 9212

stoichiometry N [14]: 3 and 2
stoichiometry N [15]: 3
Substance: photosystem I (PSI) complex from FRL-acclimated Synechococcus sp. PCC 7335
